± gives the uncertainty stated by the source.
assay: amyloid nucleation score (Sup35N fusion, yeast selection) (log enrichment); library NNK2; higher = more nucleation; inactive = no reads after selection
How it was run: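 DiMSum was used to calculate nucleation scores as log enrichment of output over input reads, centred on the mode score of non-aggregating sequences. Sequences with fewer than 100 input reads were not scored. Input and output came from Illumina sequencing of plasmid inserts in psi-negative yeast expressing peptides of 20 random codons fused to Sup35N, induced 24 hours with 100 μM copper sulfate and then grown 7 days at 30°C on medium lacking adenine and uracil.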

Compared with RDIFILSLLDRMSEGTKRIR, FWIEDF is lower in amyloid nucleation score: 3.86 ± 0.076 for the first, -0.291 ± 1.1 for the second.

Compared with LLTGVISGYQIRWGTTSLNG, LDPTVPGVIANVPNRRLARS is higher in amyloid nucleation score: 2.49 ± 0.1 for the first, 5.87 ± 0.061 for the second.

Compared with PAFVYHFYQYNLTICYGYLG, NSRNSSYKWFSSSFVHVADF is higher in amyloid nucleation score: -0.313 ± 0.5 for the first, 1.71 ± 0.088 for the second.

WWRRRCR and DYWLMEWMRYVHRLVGNCWY are within error of each other in amyloid nucleation score: 0.224 ± 0.3 for the first, -0.959 ± 1.1 for the second.

FLVLVTFKFRAQTDFLSSWN and SDNSM are within error of each other in amyloid nucleation score: -0.884 ± 0.78 for the first, -0.235 ± 0.32 for the second.

First: WLYALWCDWSA
Second: WAWGCWVHSESVAWSCMCKA
The amyloid nucleation score of the first is higher: 3.97 ± 0.061 for the first, 0.476 ± 0.28 for the second.

Going from IVLTLDLSRRVGMRNCVLLG to FCALPWGFFGYMGNLNLYSD, the amyloid nucleation score rises from -0.063 ± 0.54 to 2.62 ± 0.083.

Compared with MKCDIFGGLSDN, SELLGLSIKAIYICCMSQME is lower in amyloid nucleation score: 0.698 ± 0.62 for the first, -0.9 ± 0.61 for the second.

First: LASFGLRGVRQCQMNAE
Second: DSTFKYYRTYLKERR
The amyloid nucleation score of the first is higher: 1.78 ± 0.15 for the first, -0.357 ± 0.41 for the second.

DFGVWFFFYTHQLSA and PQWWRNLLSKSGTNAADCYL are within error of each other in amyloid nucleation score: -0.113 ± 1.1 for the first, 0.577 ± 0.57 for the second.

VSGFFSDHA and LPHESFNQHGKLFMAD are within error of each other in amyloid nucleation score: -1.06 ± 1.1 for the first, 0.054 ± 0.46 for the second.

GNLLKREFAIVFFSVYKQEA and TCFEEFLQKFMYCATFMKKM are within error of each other in amyloid nucleation score: -0.27 ± 0.76 for the first, -0.403 ± 0.78 for the second.

Compared with LCFSVNLARNLWLDNWVGGR, HVAEEVMGIVARVRVLMILS is lower in amyloid nucleation score: 6.12 ± 0.084 for the first, -0.598 ± 0.45 for the second.

Compared with IRDWHWTNVGSCNCCFFCQG, NGIRQDNMGGVHVPTGSTII is lower in amyloid nucleation score: 9.244 ± 0.079 for the first, -0.277 ± 0.39 for the second.

Going from IMGKLHTADYIIVLRLIDRS to SRWPLGNMCGKPVEMPEKWS, the amyloid nucleation score rises from -0.349 ± 0.41 to 0.836 ± 0.55.

Compared with FILGSESNLRVSMRLFGSNW, GNLLVGAKSMVLSRFIGLYR is lower in amyloid nucleation score: 5.019 ± 0.03 for the first, 2.16 ± 0.23 for the second.

First: CYYVDIVVSHQRTTSVMVGD
Second: SLYFGIRYENRERCLFDLHV
The amyloid nucleation score of the first is lower: 0.698 ± 0.29 for the first, 2.42 ± 0.17 for the second.

APPLTLELQYGWPLQRPLTK and RPKYCQVVAGLVNYGVRLVV are within error of each other in amyloid nucleation score: 0.275 ± 0.33 for the first, -0.262 ± 0.49 for the second.

HIYRKM and DMVCRY are within error of each other in amyloid nucleation score: 0.151 ± 0.2 for the first, -0.272 ± 0.36 for the second.

DSDNIPNHTYMILFGIQFHS and SAVIFAESTCV are within error of each other in amyloid nucleation score: -0.311 ± 0.65 for the first, -0.512 ± 0.79 for the second.

GLSNR and SVCLSSYFHCKRSVMWFYKV are within error of each other in amyloid nucleation score: 0.458 ± 0.28 for the first, -0.363 ± 0.74 for the second.

Going from TCEYVVN to VEMSEDEPCLWYGSLIPGTR, the amyloid nucleation score rises from -0.659 ± 0.54 to 2.83 ± 0.18.

INQFMRDFLDHLPCAYRVYN and WLVMEATLAFIRYTRGSFSL are within error of each other in amyloid nucleation score: -0.049 ± 0.55 for the first, -0.432 ± 1.1 for the second.

RLSNELKRMVYSDQVQGYSR and NLVTFVWKRYLINIISVTKD are within error of each other in amyloid nucleation score: -0.357 ± 0.48 for the first, -1.51 ± 1.1 for the second.

VVRQTVSDCVQASTRSQLLK and SLHRAVYMGVKEYAILTEYG are within error of each other in amyloid nucleation score: 0.522 ± 0.35 for the first, 0.127 ± 0.35 for the second.

Going from YWSMSVMVNMKFPCGNCWVR to VDFLLYLVSSTFGRARKWVY, the amyloid nucleation score falls from 2.24 ± 0.11 to -0.425 ± 0.27.

GFGSVLIW and FLHVSRDLPYYYCFLV are within error of each other in amyloid nucleation score: -0.523 ± 1 for the first, -0.703 ± 0.74 for the second.

First: PPVLLISKSSFMQLGCSLST
Second: GSCNRKRHDVAYHLKCGMVA
The amyloid nucleation score of the first is lower: -0.587 ± 1 for the first, 1.09 ± 0.14 for the second.

Compared with RPRAWI, FPRSGYITHLDCATR is lower in amyloid nucleation score: 0.428 ± 0.44 for the first, -0.589 ± 0.55 for the second.

First: LSNLEAEAWMRAYCIRVKIT
Second: VSSAHYV
The amyloid nucleation score of the first is higher: 2.16 ± 0.1 for the first, -0.657 ± 0.76 for the second.

Compared with VVSITNINNMSSMRSEPEYK, VPVSRILNLFFVLVTL is lower in amyloid nucleation score: 6.98 ± 0.078 for the first, 6.45 ± 0.086 for the second.

Compared with RLSPPRNWLVRRRRIFNGLL, IFGLCCFCGSYQRY is higher in amyloid nucleation score: -0.757 ± 0.76 for the first, 8.152 ± 0.033 for the second.

Going from MFILGAHGKFGSTTMGVLAC to NYGSSRLAPVHNT, the amyloid nucleation score rises from -1.64 ± 0.62 to 3.17 ± 0.12.

Compared with FNNLFIRTADQEVTILDVTH, LYIDIRRSCLVCNGMSWRAG is higher in amyloid nucleation score: -0.031 ± 1 for the first, 5.865 ± 0.052 for the second.

VDGTFYLTYFTTCVQSIFFA and EYTHRSERFIMGNVISKVRM are within error of each other in amyloid nucleation score: 0.558 ± 0.6 for the first, 0.255 ± 0.49 for the second.

First: CLAVIQWFPCIVDMGLECGF
Second: THRTGLDK
The amyloid nucleation score of the first is higher: 2.96 ± 0.049 for the first, 0.319 ± 0.36 for the second.

Compared with IGIMQMIYFVD, KGFAKILLGTSCLMSV is lower in amyloid nucleation score: 5.79 ± 0.068 for the first, -0.848 ± 0.62 for the second.

HNMPARKYINSLMTFHVRWP and NCYRLWWPVLSTWWRFFI are within error of each other in amyloid nucleation score: -0.321 ± 0.79 for the first, 0.047 ± 0.35 for the second.

For VDLAR, the amyloid nucleation score was “inactive”.
With QMSLAGRG the amyloid nucleation score was “inactive”.
In the case of NAHMSRRGYSSMMRCY, the amyloid nucleation score is reported as “inactive”.
With LFCRSSC the amyloid nucleation score was “inactive”.
In the case of ALLDCMWCTCVCKVSSGVVH, the amyloid nucleation score is reported as “inactive”.
For DDVSHPHLKCIVWD, the amyloid nucleation score was “inactive”.
For VERRVGEVRFIDAGVFGLGY, the amyloid nucleation score was “inactive”.
For NDCMGWH, the amyloid nucleation score was “inactive”.
For CVWGWNRSYTYYYGDAIGHC, the amyloid nucleation score was “inactive”.
In the case of LVKLEKHRLKVVNDYNSFEG, the amyloid nucleation score is reported as “inactive”.
